{
  "source": "patent US20070087405",
  "proteins": {"B1": {"name": "α subunit of human prolyl 4-hydroxylase (protein)", "chain": "HPGFFTSIGQMTDLIHTEKDLVTSLKDYIKAEEDKLEQIKKWAEKLDRLTSTATKDPEGFVGHPVNAFKLMKRLNTEWSELENLVLKDMSDGFISNLTIQRQYFPNDEDQVGAAKALLRLQDTYNLDTDTISKGNLPGVKHKSFLTAEDCFELGKVAYTEADYYHTELWMEQALRQLDEGEISTIDKVSVLDYLSYAVYQQGDLDKALLLTKKLLELDPEHQRANGNLKYFEYIMAKEKDVNKSASDDQSDQKTTPKKKGVAVDYLPERQKYEMLCRGEGIKMTPRRQKKLFCRYHDGNRNPKFILAPAKQEDEWDKPRIIRFHDIISDAEIEIVKDLAKPRLRRATISNPITGDLETVHYRISKSAWLSGYENPVVSRINMRIQDLTGLDVSTAEELQVANYGVGGQYEPHFDFARKDEPDAFKELGTGNRIATWLFYMSDVSAGGATVFPEVGASVWPKKGTAVFWYNLFASGEGDYSTRHAACPVLVGNKWVSNKWLHERGQEFRRPCTLSELE"}},
  "molecular_target": "β subunit of human prolyl 4-hydroxylase, P07237",
  "sequence (P07237 18-508)": "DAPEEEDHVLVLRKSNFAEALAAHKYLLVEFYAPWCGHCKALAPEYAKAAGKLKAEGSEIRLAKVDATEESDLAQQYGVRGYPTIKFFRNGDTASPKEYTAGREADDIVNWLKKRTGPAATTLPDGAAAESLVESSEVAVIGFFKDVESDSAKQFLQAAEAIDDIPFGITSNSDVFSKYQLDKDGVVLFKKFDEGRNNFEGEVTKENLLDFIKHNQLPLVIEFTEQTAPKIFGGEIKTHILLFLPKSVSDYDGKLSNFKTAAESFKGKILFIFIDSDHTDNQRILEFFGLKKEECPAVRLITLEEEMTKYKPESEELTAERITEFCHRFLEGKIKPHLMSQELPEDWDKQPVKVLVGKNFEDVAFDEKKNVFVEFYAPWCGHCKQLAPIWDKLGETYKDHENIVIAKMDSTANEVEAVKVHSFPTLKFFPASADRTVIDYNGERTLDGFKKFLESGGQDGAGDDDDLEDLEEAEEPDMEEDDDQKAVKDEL",
  "data": [
    {"protein": "B1", "values": [
      {"measurement": "prolyl 4-hydroxylase activity (decarboxylation of 2-oxo[1-14C]glutarate) and trimeric assembly of mC21", "value": "These data suggest that the P4α and P4β are capable of assembling into an active α2β2 tetramer in the Drosophila expression system"}
    ]}
  ]
}
